Laboratory results published in publication PMC10160976 (Proceedings of the National Academy of Sciences of the …, 2023).

T1: human LPL^S132A/R297A (inactive lipoprotein lipase mutant) (human, UniProt P06858 28-475, S132A | R297A)
T1 sequence (looked up): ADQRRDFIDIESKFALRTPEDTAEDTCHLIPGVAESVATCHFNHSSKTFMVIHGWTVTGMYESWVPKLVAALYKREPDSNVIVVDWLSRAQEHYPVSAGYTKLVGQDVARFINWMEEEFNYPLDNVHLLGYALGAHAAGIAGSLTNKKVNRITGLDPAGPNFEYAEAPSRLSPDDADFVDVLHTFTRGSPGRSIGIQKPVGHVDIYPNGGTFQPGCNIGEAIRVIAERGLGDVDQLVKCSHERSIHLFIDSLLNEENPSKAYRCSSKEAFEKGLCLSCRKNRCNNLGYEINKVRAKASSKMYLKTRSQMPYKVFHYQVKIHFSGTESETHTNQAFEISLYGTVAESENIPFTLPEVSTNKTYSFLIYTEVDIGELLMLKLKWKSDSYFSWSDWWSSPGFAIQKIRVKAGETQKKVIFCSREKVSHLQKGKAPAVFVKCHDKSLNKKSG


Assays:
[1] = biological target: T1, human LPL^S132A/R297A (inactive …); test: HDX-MS
[2] = biological target: T1, human LPL^S132A/R297A (inactive …); test: cell-based or functional assay

Row | binding result [1] | Binder | onset of LPL aggregation (turbidity, proxy for Tm) against APOC2^Q70E [2] [°C]
1 | binds | soluble truncated human GPIHBP1 (residues 1 to 131) (domain or fragment, UniProt Q8IV16 21-151, looked up) QTQQEEEEEDEDHGPDDYDEEDEDEVEEEETNRLPGGRSRVLLRCYTCKSLPRDERCNLTQNCSHGQTCTTLIAHGNTESGLLTTHSTWCTDSCQPITKTVEGTQVTMTCCQSSLCNVPPWQSSRVQDPTG | –
2 | – | APOC2^wt (apolipoprotein C2, N-terminal 6xHis-tag) (natural protein, UniProt P02655 23-101, looked up) TQQPQQDEMPSPTFLTQVKESLSSYWESAKTAAQNLYEKTYLPAVDEKLRDLYSKSTAAMSTYTGIFTDQVLSVLKGEE | > 20
